Source: patent US20200157190A1

Assays:
[1] = molecular target: Antigen 2; experiment: ELISA, supernatant 1 TO 16, Plate 2 (Antigen 2), column 6, BLANK 0.06
[2] = molecular target: Antigen 2; experiment: ELISA, supernatant 1 TO 1024, Plate 2 (Antigen 2), column 6, BLANK 0.06
[3] = molecular target: Antigen 1; experiment: ELISA, supernatant 1 TO 4, Plate 1 (Antigen 1), column 6, BLANK 0.07
[4] = molecular target: Antigen 2; experiment: ELISA, supernatant 1 TO 64, Plate 2 (Antigen 2), column 6, BLANK 0.06
[5] = molecular target: Antigen 1; experiment: ELISA, supernatant 1 TO 1024, Plate 1 (Antigen 1), column 6, BLANK 0.07
[6] = molecular target: Antigen 1; experiment: ELISA, supernatant 1 TO 4096, Plate 1 (Antigen 1), column 6, BLANK 0.07
[7] = molecular target: Antigen 1; experiment: ELISA, supernatant 1 TO 16, Plate 1 (Antigen 1), column 6, BLANK 0.07
[8] = molecular target: Antigen 2; experiment: ELISA, supernatant 1 TO 4, Plate 2 (Antigen 2), column 6, BLANK 0.06
[9] = molecular target: Antigen 1; experiment: ELISA, supernatant 1 TO 256, Plate 1 (Antigen 1), column 6, BLANK 0.07
[10] = molecular target: Antigen 1; experiment: ELISA, supernatant UNDILUTED, Plate 1 (Antigen 1), column 6, BLANK 0.07
[11] = molecular target: Antigen 1; experiment: ELISA, supernatant 1 TO 64, Plate 1 (Antigen 1), column 6, BLANK 0.07
[12] = molecular target: Antigen 2; experiment: ELISA, supernatant UNDILUTED, Plate 2 (Antigen 2), column 6, BLANK 0.06
[13] = molecular target: Antigen 2; experiment: ELISA, supernatant 1 TO 4096, Plate 2 (Antigen 2), column 6, BLANK 0.06
[14] = molecular target: Antigen 2; experiment: ELISA, supernatant 1 TO 256, Plate 2 (Antigen 2), column 6, BLANK 0.06
[15] = molecular target: Antigen 2; experiment: ELISA, supernatant 1 TO 4, Plate 2 (Antigen 2), column 8, BLANK 0.07
[16] = molecular target: Antigen 2; experiment: ELISA, supernatant UNDILUTED, Plate 2 (Antigen 2), column 8, BLANK 0.07
[17] = molecular target: Antigen 2; experiment: ELISA, supernatant 1 TO 256, Plate 2 (Antigen 2), column 8, BLANK 0.07
[18] = molecular target: Antigen 2; experiment: ELISA, supernatant 1 TO 1024, Plate 2 (Antigen 2), column 8, BLANK 0.07
[19] = molecular target: Antigen 1; experiment: ELISA, supernatant 1 TO 256, Plate 1 (Antigen 1), column 8, BLANK 0.07
[20] = molecular target: Antigen 2; experiment: ELISA, supernatant 1 TO 4096, Plate 2 (Antigen 2), column 8, BLANK 0.07
[21] = molecular target: Antigen 1; experiment: ELISA, supernatant 1 TO 1024, Plate 1 (Antigen 1), column 8, BLANK 0.07
[22] = molecular target: Antigen 1; experiment: ELISA, supernatant 1 TO 16, Plate 1 (Antigen 1), column 8, BLANK 0.07
[23] = molecular target: Antigen 2; experiment: ELISA, supernatant 1 TO 64, Plate 2 (Antigen 2), column 8, BLANK 0.07
[24] = molecular target: Antigen 1; experiment: ELISA, supernatant 1 TO 4, Plate 1 (Antigen 1), column 8, BLANK 0.07
[25] = molecular target: Antigen 1; experiment: ELISA, supernatant 1 TO 64, Plate 1 (Antigen 1), column 8, BLANK 0.07
[26] = molecular target: Antigen 1; experiment: ELISA, supernatant 1 TO 4096, Plate 1 (Antigen 1), column 8, BLANK 0.07
[27] = molecular target: Antigen 1; experiment: ELISA, supernatant UNDILUTED, Plate 1 (Antigen 1), column 8, BLANK 0.07
[28] = molecular target: Antigen 2; experiment: ELISA, supernatant 1 TO 16, Plate 2 (Antigen 2), column 8, BLANK 0.07
[29] = molecular target: Antigen 1; experiment: ELISA, supernatant UNDILUTED, Plate 1 (Antigen 1), column 10, BLANK 0.07
[30] = molecular target: Antigen 1; experiment: ELISA, supernatant 1 TO 256, Plate 1 (Antigen 1), column 10, BLANK 0.07
[31] = molecular target: Antigen 2; experiment: ELISA, supernatant 1 TO 4, Plate 2 (Antigen 2), column 10, BLANK 0.07
[32] = molecular target: Antigen 1; experiment: ELISA, supernatant 1 TO 64, Plate 1 (Antigen 1), column 10, BLANK 0.07
[33] = molecular target: Antigen 2; experiment: ELISA, supernatant 1 TO 64, Plate 2 (Antigen 2), column 10, BLANK 0.07
[34] = molecular target: Antigen 2; experiment: ELISA, supernatant 1 TO 1024, Plate 2 (Antigen 2), column 10, BLANK 0.07
[35] = molecular target: Antigen 2; experiment: ELISA, supernatant 1 TO 16, Plate 2 (Antigen 2), column 10, BLANK 0.07
[36] = molecular target: Antigen 1; experiment: ELISA, supernatant 1 TO 4, Plate 1 (Antigen 1), column 10, BLANK 0.07
[37] = molecular target: Antigen 1; experiment: ELISA, supernatant 1 TO 16, Plate 1 (Antigen 1), column 10, BLANK 0.07
[38] = molecular target: Antigen 2; experiment: ELISA, supernatant UNDILUTED, Plate 2 (Antigen 2), column 10, BLANK 0.07
[39] = molecular target: Antigen 1; experiment: ELISA, supernatant 1 TO 4096, Plate 1 (Antigen 1), column 10, BLANK 0.07
[40] = molecular target: Antigen 2; experiment: ELISA, supernatant 1 TO 256, Plate 2 (Antigen 2), column 10, BLANK 0.07
[41] = molecular target: Antigen 2; experiment: ELISA, supernatant 1 TO 4096, Plate 2 (Antigen 2), column 10, BLANK 0.07
[42] = molecular target: Antigen 1; experiment: ELISA, supernatant 1 TO 1024, Plate 1 (Antigen 1), column 10, BLANK 0.07

B1: Heavy Chain Construct 3 with Light Chain Construct 2 (VH1-VH2/VL2) (antibody)
heavy: QSVEESGGRLVTPGTPLTLTCTVSGFSLNTNAIRWVRQAPGKGLEWIGAIDASGNTYYASWAKGRFTISKTSTTVDLKITSPTTEDTATYFCNRFNTANIWGPGTLVTVSSGQPKAPSVFPLAPCCGDTPSSTVTLGCLVKGYLPEPVTVTWNSGTLTNGVRTFPSVRQSSGLYSLSSVVSVTSSSQPVTCNVAHPATNTKVDKTVAPSTCSKPMCPPPELLGGRPQPQPQPQPQPQPQPQPQPQPQPQPQPQPQPQSRQSLEESGGRLVSPGTPLTLTCTASGFSLSSNAMGWVRQAPGEGLEYIGIIRPGGSTYYASWAKGRFTISKTSSTTVDLKMTSLTTEDTATYFCARAWDIWGPGTLVTVSLGQPKAPSVFPLAPCCGDTPSSTVTLGCLVKGYLPEPVTVTWNSGTLTNGVRTFPSVRQSSGLYSLSSVVSVTSSSQPVTCNVAHPATNTKVDKTVAPSTCSKPTCPPPELLGGPSVFIFPPKPKDTLMISRTPEVTCVVVDVSQDDPEVQFTWYINNEQVRTARPPLREQQFNSTIRVVSTLPIAHQDWLRGKEFKCKVHNKALPAPIEKTISKARGQPLEPKVYTMGPPREELSSRSVSLACMINGFYPSDISVEWEKNGKAEDNYKTTPAVLDSDGSYFLYSKLSVPTSEWQRGDVFTCSVMHEALHNHYTQKSISRSPGK
light: AFELTQTPSSVEAAVGGTVTIRCQASQSISNQLSWYQQKPGQPPKRLIYRASTLASGVPARFKGSGSGTAFTLTISDLECADGATYYCQSFYYTDVIDYNAFGGGTEVVVTGDPVAPTVLIFPPAADQVATGTVTIVCVANKYFPDVTVTWEVDGTTQTTGIENSKTPQNSADCTYNLSSTLTLTSTQYNSHKEYTCKVTQGTTSVVQSFNRGDC
For B1, which ELISA plate reading [1] is on record?
The ELISA plate reading was 0.67.

What about the ELISA plate reading [2] of the same binder?
Its ELISA plate reading is 0.08.

What about the ELISA plate reading [3] of the same binder?
The ELISA plate reading was 0.11.

What about the ELISA plate reading [4] of the same binder?
The ELISA plate reading was 0.26.

And the ELISA plate reading [5]?
The ELISA plate reading was 0.06.

And the ELISA plate reading [6]?
Its ELISA plate reading is 0.06.

What about the ELISA plate reading [7] of the same binder?
Its ELISA plate reading is 0.07.

What about the ELISA plate reading [8] of the same binder?
Its ELISA plate reading is 1.4.

What about the ELISA plate reading [9] of the same binder?
The ELISA plate reading was 0.06.

And the ELISA plate reading [10]?
The ELISA plate reading was 0.22.

What about the ELISA plate reading [11] of the same binder?
The ELISA plate reading was 0.09.

And the ELISA plate reading [12]?
Its ELISA plate reading is 2.04.

And the ELISA plate reading [13]?
The ELISA plate reading was 0.06.

What about the ELISA plate reading [14] of the same binder?
The ELISA plate reading was 0.11.

B2: VH2-VH2 / VL2 (antibody)
heavy chain (VH2-CH1, PQ linker, VH2-CH1, hinge, CH2, CH3): QSLEESGGRLVSPGTPLTLTCTASGFSLSSNAMGWVRQAPGEGLEYIGIIRPGGSTYYASWAKGRFTISKTSSTTVDLKMTSLTTEDTATYFCARAWDIWGPGTLVTVSLGQPKAPSVFPLAPCCGDTPSSTVTLGCLVKGYLPEPVTVTWNSGTLTNGVRTFPSVRQSSGLYSLSSVVSVTSSSQPVTCNVAHPATNTKVDKTVAPSTCSKPTCPPPELLGGRPQPQPQPQPQPQPQPQPQPQPQPQPQPQPQPQSRQSLEESGGRLVSPGTPLTLTCTASGFSLSSNAMGWVRQAPGEGLEYIGIIRPGGSTYYASWAKGRFTISKTSSTTVDLKMTSLTTEDTATYFCARAWDIWGPGTLVTVSLGQPKAPSVFPLAPCCGDTPSSTVTLGCLVKGYLPEPVTVTWNSGTLTNGVRTFPSVRQSSGLYSLSSVVSVTSSSQPVTCNVAHPATNTKVDKTVAPSTCSKPTCPPPELLGGPSVFIFPPKPKDTLMISRTPEVTCVVVDVSQDDPEVQFTWYINNEQVRTARPPLREQQFNSTIRVVSTLPIAHQDWLRGKEFKCKVHNKALPAPIEKTISKARGQPLEPKVYTMGPPREELSSRSVSLACMINGFYPSDISVEWEKNGKAEDNYKTTPAVLDSDGSYFLYSKLSVPTSEWQRGDVFTCSVMHEALHNHYTQKSISRSPGK
light chain: AFELTQTPSSVEAAVGGTVTIRCQASQSISNQLSWYQQKPGQPPKRLIYRASTLASGVPARFKGSGSGTAFTLTISDLECADGATYYCQSFYYTDVIDYNAFGGGTEVVVTGDPVAPTVLIFPPAADQVATGTVTIVCVANKYFPDVTVTWEVDGTTQTTGIENSKTPQNSADCTYNLSSTLTLTSTQYNSHKEYTCKVTQGTTSVVQSFNRGDC
With B2 as the binder, how does the ELISA plate reading [15] read?
The ELISA plate reading was 2.12.

What about the ELISA plate reading [16] of the same binder?
The ELISA plate reading was 2.28.

And the ELISA plate reading [17]?
The ELISA plate reading was 1.47.

What about the ELISA plate reading [18] of the same binder?
Its ELISA plate reading is 0.68.

What about the ELISA plate reading [19] of the same binder?
The ELISA plate reading was 0.06.

What about the ELISA plate reading [20] of the same binder?
Its ELISA plate reading is 0.33.

And the ELISA plate reading [21]?
Its ELISA plate reading is 0.08.

What about the ELISA plate reading [22] of the same binder?
The ELISA plate reading was 0.16.

What about the ELISA plate reading [23] of the same binder?
Its ELISA plate reading is 2.1.

What about the ELISA plate reading [24] of the same binder?
Its ELISA plate reading is 0.12.

And the ELISA plate reading [25]?
The ELISA plate reading was 0.01.

What about the ELISA plate reading [26] of the same binder?
The ELISA plate reading was 0.07.

And the ELISA plate reading [27]?
The ELISA plate reading was 0.15.

And the ELISA plate reading [28]?
Its ELISA plate reading is 2.14.

B3: Original Heavy Chain (VH2) and Light Chain (VL2) that recognizes Antigen 2 (antibody, V domains shown)
VH: QSLEESGGRLVSPGTPLTLTCTASGFSLSSNAMGWVRQAPGEGLEYIGIIRPGGSTYYASWAKGRFTISKTSSTTVDLKMTSLTTEDTATYFCARAWDIWGPG
VL: AFELTQTPSSVEAAVGGTVTIRCQASQSISNQLSWYQQKPGQPPKRLIYRASTLASGVPARFKGSGSGTAFTLTISDLECADGATYYCQSFYYTDVIDYNAFGGGTEVVVTG
How did the ELISA plate reading [29] turn out when B3 was run?
The ELISA plate reading was 0.09.

What about the ELISA plate reading [30] of the same binder?
Its ELISA plate reading is 0.08.

And the ELISA plate reading [31]?
The ELISA plate reading was 2.38.

What about the ELISA plate reading [32] of the same binder?
Its ELISA plate reading is 0.08.

And the ELISA plate reading [33]?
Its ELISA plate reading is 2.19.

What about the ELISA plate reading [34] of the same binder?
Its ELISA plate reading is 0.94.

And the ELISA plate reading [35]?
Its ELISA plate reading is 2.24.

What about the ELISA plate reading [36] of the same binder?
Its ELISA plate reading is 0.12.

What about the ELISA plate reading [37] of the same binder?
The ELISA plate reading was 0.08.

What about the ELISA plate reading [38] of the same binder?
Its ELISA plate reading is 2.27.

What about the ELISA plate reading [39] of the same binder?
Its ELISA plate reading is 0.08.

And the ELISA plate reading [40]?
Its ELISA plate reading is 1.68.

What about the ELISA plate reading [41] of the same binder?
Its ELISA plate reading is 0.39.

What about the ELISA plate reading [42] of the same binder?
The ELISA plate reading was 0.1.
